Data published in patent publication US20240010701A1.
pKd: −log10 of the molar value.

How the values were obtained:
FcγIIIaV158F (human) [1] = molecular target: FcγIIIaV158F (human) (UniProt P08637); test: SPR (Biacore 8K), 25° C, antibody captured on nectin-4-coated chip, receptor ECD as analyte, steady-state analysis
hFcγIIIa (human) [2] = molecular target: hFcγIIIa (human) (UniProt P08637); test: as above
FcγIIIaV158F (human) [3] = molecular target: FcγIIIaV158F (human) (UniProt P08637); test: SPR (Biacore 8K), 25° C, ADC captured on nectin-4-coated chip, receptor ECD as analyte, steady-state analysis
hFcγIIIa (human) [4] = molecular target: hFcγIIIa (human) (UniProt P08637); test: as above

| pKd (FcγIIIaV158F (human) [1]) | pKd (hFcγIIIa (human) [2]) | pKd (FcγIIIaV158F (human) [3]) | pKd (hFcγIIIa (human) [4]) | Substance |
| --- | --- | --- | --- | --- |
| 6.01 | 6.50 |  |  | DRUG B (enfortumab similar antibody that specifically binds human nectin-4) |
|  |  | 5.92 | 6.37 | DRUG C (enfortumab vedotin similar antibody-drug conjugate) |
